Test results: PMC3039359

Assays:
Rrp47 ΔC = biological target: T1, Rrp47 ΔC (Saccharomyces cerevisiae, UniProt P38801 1-120, del121-184); assay: filter binding
T1 sequence: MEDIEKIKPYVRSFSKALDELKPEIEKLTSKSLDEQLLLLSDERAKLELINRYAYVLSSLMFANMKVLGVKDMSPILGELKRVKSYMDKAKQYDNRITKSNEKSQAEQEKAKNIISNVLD

Rrp47 = biological target: T2, Rrp47 (Saccharomyces cerevisiae, UniProt P38801 1-184); assay: filter binding
T2 sequence: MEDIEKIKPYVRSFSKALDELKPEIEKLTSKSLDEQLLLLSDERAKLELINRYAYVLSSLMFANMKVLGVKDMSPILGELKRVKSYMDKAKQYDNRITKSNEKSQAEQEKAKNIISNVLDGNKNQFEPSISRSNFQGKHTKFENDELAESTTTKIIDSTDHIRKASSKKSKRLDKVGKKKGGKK

B1: SL-AU RNA (structured_RNA)
RNA: GGGUUUCCUUCUCAAACAUUCUGUUUGGUAGUGAGUAAUUAAAAAUGAAUU
binding result (Rrp47 ΔC): no binding
Kd (Rrp47): ~1000 nM
